Consider two molecules from patent US20130260455A1 (ONCOMED PHARMACEUTICALS, published 2013).

Numbering of substitutions follows the chain as printed.

For experiment [1], the target named is T1, hN2 11-12 (human Notch2 amino acids 413-493 fused to hFc) (human, UniProt Q04721 413-493).
T1 construct: not shown: constant region of human IgG (hFc)
T1 sequence: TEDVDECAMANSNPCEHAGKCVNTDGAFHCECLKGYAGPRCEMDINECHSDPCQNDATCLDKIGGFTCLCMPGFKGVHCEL
The experiment in a line: capture ELISA: hN2-hFc from HEK-293 supernatant on anti-human Fc plates, 59R1 Fab, HRP anti-human Fab [lower graph]. As to the method: (§1) The binding of anti-Notch2/3 antibodies to supernatant from HEK 293 cells transfected with sequences encoding recombinant human Notch2 Fc fusion proteins comprising the full length human Notch2 protein or various human Notch2 deletion constructs containing various deletions of EGF repeats one to twelve were tested by ELISA. HEK-293 cells were transiently transfected with pcDNA 3.1 (Invitrogen) with hNotch2 cDNA's encoding for the indicated amino acids fused to the constant region of human IgG (hFc). Supernatants were harvested 48 hours later. To capture hN2-hfc proteins, 96 well plates were first coated with goat anti-human Fec gamma specific IgG (Jackson Immunochemicals, #109-006-098) at 100 ng per well in sodium bicarbonate buffer overnight at 4°. Plates were washed and blocked in 5% bovine serum/PBS-Tween-20. Supernatants were added to plates and incubated at room temperature for 1 hour. Plates were washed in PBS-T. 59R1 Fab was added at 10 μg/ml in 5% serum/PBS-T and incubated at room temperature for 1 hour. Plates were washed in PBS-T. Fab binding was detected by goat anti-human Fab specific antibody conjugated to horseradish peroxidase (Thermo. #31414) diluted 1:5000 in 5% serum/PBS-T for 1 hour at room temperature. Plates were washed and developed with 1 Step Ultra TMB (Thermo. #34028). Plates were read on a Perkin Elmer Victor 1420 plate reader. […] (FIG. 3A).

In experiment [2] the target is T2, hN2 12-12 (human Notch2 amino acids 454-493 fused to hFc) (human, UniProt Q04721 454-493).
T2 construct: not shown: constant region of human IgG (hFc)
T2 chain: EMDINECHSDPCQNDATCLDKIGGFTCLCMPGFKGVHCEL
The experiment is described as above. The procedure:
as §1

Experiment [3] has as its target T3, hN2 1-3 (human Notch2 amino acids 1-144 fused to hFc) (human, UniProt Q04721 26-144).
T3 construct: Supernatant of transfected HEK-293 cells, captured with anti-human Fc; not shown: constant region of human IgG (hFc)
The experiment in a line: capture ELISA: hN2-hFc from HEK-293 supernatant on anti-human Fc plates, 59R1 Fab, HRP anti-human Fab [upper graph]. As to the method: as §1

Experiment [4] concerns the target T4, hN2 1-4 (human Notch2 amino acids 1-181 fused to hFc) (human, UniProt Q04721 26-181).
T4 construct: not shown: constant region of human IgG (hFc)
The experiment is described as above. As to the method: as §1

In experiment [5] the target is T5, hN2 1-7 (human Notch2 amino acids 1-301 fused to hFc) (human, UniProt Q04721 26-301).
T5 construct: not shown: constant region of human IgG (hFc)
T5 sequence: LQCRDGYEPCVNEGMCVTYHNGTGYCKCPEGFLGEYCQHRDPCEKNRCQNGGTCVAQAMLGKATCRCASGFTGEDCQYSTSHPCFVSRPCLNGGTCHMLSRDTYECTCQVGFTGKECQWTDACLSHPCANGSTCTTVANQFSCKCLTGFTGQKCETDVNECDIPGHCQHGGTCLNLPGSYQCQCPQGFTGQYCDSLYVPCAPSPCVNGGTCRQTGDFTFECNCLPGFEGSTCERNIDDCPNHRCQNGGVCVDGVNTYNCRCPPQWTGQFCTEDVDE
The experiment is described as above. As to the method:
as §1

In experiment [6] the target is T6, hN2 1-6 (human Notch2 amino acids 1-263 fused to hFc) (human, UniProt Q04721 26-263).
T6 construct: not shown: constant region of human IgG (hFc)
T6 sequence: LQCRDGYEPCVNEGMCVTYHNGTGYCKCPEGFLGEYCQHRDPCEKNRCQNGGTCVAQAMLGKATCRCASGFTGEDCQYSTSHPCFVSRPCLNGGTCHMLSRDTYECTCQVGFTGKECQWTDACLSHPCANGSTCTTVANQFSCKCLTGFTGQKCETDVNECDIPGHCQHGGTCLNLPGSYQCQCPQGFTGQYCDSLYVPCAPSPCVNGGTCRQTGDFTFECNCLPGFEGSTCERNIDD
Described as above. As to the method:
as §1

The target in experiment [7] is T7, hN2 1-8 (human Notch2 amino acids 1-341 fused to hFc) (human, UniProt Q04721 26-341).
T7 construct: not shown: constant region of human IgG (hFc)
T7 sequence: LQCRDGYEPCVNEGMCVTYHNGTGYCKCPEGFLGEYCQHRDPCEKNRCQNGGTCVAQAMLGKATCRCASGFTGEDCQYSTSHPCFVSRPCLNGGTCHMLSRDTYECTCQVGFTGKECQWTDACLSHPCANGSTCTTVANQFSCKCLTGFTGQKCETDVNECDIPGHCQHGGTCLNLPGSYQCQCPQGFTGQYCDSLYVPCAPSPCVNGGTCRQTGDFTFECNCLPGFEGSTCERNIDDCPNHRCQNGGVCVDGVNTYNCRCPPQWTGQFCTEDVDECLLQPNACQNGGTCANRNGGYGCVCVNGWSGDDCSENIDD
The experiment is described as above. The procedure:
as §1

For experiment [8], the target named is T8, hN2 1-9 (human Notch2 amino acids 1-378 fused to hFc) (human, UniProt Q04721 26-378).
T8 construct: not shown: constant region of human IgG (hFc)
T8 sequence: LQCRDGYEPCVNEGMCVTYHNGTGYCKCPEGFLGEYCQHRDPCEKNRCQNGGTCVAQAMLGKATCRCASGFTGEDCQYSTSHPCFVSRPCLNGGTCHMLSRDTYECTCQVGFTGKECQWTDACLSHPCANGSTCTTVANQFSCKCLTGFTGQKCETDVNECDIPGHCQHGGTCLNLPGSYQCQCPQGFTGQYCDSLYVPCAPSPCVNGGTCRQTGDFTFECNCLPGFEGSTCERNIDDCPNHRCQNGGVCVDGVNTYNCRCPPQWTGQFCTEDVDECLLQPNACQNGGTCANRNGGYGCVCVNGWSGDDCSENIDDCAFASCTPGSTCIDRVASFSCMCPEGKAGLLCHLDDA
The description is as above. The procedure: as §1

Experiment [9] deals with T9, hN2 1-5 (human Notch2 amino acids 1-221 fused to hFc) (human, UniProt Q04721 26-221).
T9 construct: not shown: constant region of human IgG (hFc)
The experiment is described as above. As to the method: as §1

Experiment [10] has as its target T10, human Notch1, full length, on transfected cells (human, UniProt P46531 19-2555).
T10 construct: also called hNotch1
The experiment in a line: FACS on HEK 293 cells transiently transfected with Notch1 Full Length and GFP. As to the method: FIG. 15. In vitro characterization of 59R5. […] PC3 tumor cells were transiently transfected with human or mouse Notch receptor (hN2, human Notch2; mN2, murine Notch2; hN3, human Notch3; mN3, murine Notch3) and GFP inducible reporter construct. Transfected cells were incubated with different concentrations of antibody 59R1 and 59R5 in the presence of passively immobilized DLL4 Fc. […] Cells were also co-transfected with a plasmid encoding green fluorescent protein (GFP) to mark those cells that received transfected plasmid. Cells were incubated with 59R1 or 59R5 and fluorescent secondary antibody and then examined by FACS.
The binding epitope of 59R5 was determined. As was described in Example 3 for analysis of antibody 59R1, several point mutants were created within full-length Notch1, converting residues within EGF10 to the corresponding amino acids in human Notch 2. Mutants in full-length Notch sequences were generated by QuikChange® mutagenesis (Stratagene) and verified by sequencing. […] Cells were also co-transfected with a plasmid encoding green fluorescent protein (GFP) to mark those cells that received transfected plasmid. Cells were incubated with 59R1 or 59R5 and fluorescent secondary antibody and then examined by FACS. 59R1 and 59R5 were detected by PE-conjugated goat anti-human Fc gamma specific antibody (Jackson Immunochemicals, #109-116-170).

Experiment [11] concerns the target T11, recombinant mouse Notch3 (EGF9-14) (mouse, UniProt Q61982 352-581).
T11 construct: domain: EGF9-14; also called mNotch3; m-Notch3
T11 sequence (looked up): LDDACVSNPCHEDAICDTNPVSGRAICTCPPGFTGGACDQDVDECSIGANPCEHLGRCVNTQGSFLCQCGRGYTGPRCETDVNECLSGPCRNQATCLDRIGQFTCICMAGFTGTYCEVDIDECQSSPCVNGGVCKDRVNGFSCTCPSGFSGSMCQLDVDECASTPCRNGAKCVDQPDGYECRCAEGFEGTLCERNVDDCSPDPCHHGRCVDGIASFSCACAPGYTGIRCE
The experiment in a line: Biacore SPR.

Experiment [12] addresses T12, human Notch2 as used in the Biacore analysis of Table 6 (construct not stated) (human, UniProt Q04721 375-605, limits assumed).
T12 construct: also called h-Notch2
T12 sequence: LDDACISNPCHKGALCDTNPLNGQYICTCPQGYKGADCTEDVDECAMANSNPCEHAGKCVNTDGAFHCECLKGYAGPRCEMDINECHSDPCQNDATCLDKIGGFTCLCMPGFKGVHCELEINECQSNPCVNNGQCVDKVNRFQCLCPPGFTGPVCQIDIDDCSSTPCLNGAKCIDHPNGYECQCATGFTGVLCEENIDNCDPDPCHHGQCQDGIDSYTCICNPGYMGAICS
The experiment in a line: Biacore SPR.

For experiment [13], the target named is T13, recombinant mouse Notch2 (EGF10-15) (mouse, UniProt O35516 375-605).
T13 construct: domain: EGF10-15; also called mNotch2; m-Notch2
T13 sequence (looked up): T12 sequence with I121V, V191I, E194D
The experiment in a line: Biacore SPR.

The target of experiment [14] is T14, recombinant human Notch3 (EGF9-14) (human, UniProt Q9UM47 351-580).
T14 construct: The whole entry for hNotch3 is named here; also called hNotch3; h-Notch3
T14 sequence: T11 sequence (looked up) with S22N, M153T, E193D, I227T
As to the kind of experiment: Biacore SPR.

T10 sequence (P46531 19-2555 limits assumed): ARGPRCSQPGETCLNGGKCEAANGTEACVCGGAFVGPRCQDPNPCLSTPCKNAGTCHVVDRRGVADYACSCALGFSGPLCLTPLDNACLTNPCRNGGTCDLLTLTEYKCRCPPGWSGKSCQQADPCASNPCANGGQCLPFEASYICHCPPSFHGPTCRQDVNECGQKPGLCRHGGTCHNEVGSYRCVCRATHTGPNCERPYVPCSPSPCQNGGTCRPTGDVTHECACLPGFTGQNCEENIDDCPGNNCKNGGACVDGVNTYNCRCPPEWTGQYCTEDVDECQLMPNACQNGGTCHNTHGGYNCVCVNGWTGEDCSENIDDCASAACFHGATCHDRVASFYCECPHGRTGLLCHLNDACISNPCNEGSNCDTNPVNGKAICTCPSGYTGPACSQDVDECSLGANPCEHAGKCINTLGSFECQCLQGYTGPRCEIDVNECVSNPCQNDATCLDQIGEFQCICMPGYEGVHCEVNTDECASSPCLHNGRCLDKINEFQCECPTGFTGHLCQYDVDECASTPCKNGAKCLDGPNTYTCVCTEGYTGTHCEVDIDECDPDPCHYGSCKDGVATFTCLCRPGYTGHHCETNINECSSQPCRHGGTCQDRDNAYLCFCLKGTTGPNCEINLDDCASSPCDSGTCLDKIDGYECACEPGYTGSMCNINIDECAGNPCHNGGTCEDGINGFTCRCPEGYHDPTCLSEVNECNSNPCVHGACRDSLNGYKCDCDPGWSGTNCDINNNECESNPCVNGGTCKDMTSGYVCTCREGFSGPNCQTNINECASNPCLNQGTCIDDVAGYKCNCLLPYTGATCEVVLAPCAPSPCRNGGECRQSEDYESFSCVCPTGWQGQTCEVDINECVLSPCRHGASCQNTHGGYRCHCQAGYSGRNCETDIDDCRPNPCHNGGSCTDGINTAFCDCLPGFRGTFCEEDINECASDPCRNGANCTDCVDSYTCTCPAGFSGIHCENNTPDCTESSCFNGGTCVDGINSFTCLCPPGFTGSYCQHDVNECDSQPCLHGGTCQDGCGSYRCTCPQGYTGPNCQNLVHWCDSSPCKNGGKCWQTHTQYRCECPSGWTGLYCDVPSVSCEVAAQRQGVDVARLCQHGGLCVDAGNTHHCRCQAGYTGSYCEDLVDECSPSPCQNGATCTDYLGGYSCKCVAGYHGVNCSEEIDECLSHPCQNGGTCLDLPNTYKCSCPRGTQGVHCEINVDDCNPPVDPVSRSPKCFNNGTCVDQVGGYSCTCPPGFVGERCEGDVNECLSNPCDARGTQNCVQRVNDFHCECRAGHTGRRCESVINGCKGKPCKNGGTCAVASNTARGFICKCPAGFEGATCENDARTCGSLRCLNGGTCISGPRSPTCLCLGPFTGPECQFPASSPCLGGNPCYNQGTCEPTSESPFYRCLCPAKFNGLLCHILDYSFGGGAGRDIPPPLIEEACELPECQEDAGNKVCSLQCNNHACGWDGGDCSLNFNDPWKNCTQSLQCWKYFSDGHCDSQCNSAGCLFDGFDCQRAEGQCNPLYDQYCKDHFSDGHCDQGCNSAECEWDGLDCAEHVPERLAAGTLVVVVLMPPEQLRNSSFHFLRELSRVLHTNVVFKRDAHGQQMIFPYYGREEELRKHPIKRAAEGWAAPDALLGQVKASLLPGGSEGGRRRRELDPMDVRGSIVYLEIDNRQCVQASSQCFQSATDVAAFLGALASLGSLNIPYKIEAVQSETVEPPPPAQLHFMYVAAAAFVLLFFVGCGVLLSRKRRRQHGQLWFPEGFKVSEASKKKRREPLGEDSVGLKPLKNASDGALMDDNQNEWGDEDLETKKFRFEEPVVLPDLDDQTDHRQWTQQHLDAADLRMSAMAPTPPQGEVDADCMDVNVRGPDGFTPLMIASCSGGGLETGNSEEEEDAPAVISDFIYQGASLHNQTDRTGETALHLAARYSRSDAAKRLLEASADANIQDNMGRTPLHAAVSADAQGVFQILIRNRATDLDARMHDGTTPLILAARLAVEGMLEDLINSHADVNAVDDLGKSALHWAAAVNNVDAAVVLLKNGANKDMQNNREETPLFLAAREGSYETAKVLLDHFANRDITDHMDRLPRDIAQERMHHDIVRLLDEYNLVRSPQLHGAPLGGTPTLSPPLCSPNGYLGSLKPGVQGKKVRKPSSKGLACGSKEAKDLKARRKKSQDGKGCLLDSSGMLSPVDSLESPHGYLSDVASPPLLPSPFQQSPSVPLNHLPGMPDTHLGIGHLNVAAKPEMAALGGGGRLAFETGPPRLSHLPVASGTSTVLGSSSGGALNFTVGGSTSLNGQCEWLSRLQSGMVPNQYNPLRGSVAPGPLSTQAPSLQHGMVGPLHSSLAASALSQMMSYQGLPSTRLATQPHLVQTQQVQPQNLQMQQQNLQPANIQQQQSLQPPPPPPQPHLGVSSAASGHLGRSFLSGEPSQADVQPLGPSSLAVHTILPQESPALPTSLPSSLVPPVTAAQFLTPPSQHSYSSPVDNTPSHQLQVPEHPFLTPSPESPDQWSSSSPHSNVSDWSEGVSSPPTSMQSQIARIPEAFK

B1: 59R1 Fab (Fab, V domains shown)
VH: QVQLVESGGGLVQPGGSLRLSCAASGFTFSSSGMSWVRQAPGKGLEWVSVIASSGSNTYYADSVKGRFTISRDNSKNTLYLQMNSLRAEDTAVYYCARGIFFAIWGQGTLVTVSS
VL: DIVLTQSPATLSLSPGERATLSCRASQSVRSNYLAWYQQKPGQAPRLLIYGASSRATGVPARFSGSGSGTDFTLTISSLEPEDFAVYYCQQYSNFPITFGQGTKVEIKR
notes: also called Clone 1; 59R Fab antibody
Take B1: the binding result in experiment [1], in experiment [2], in [3], in experiment [4], in experiment [5] and in experiment [6] was “no binding (tested: 10 ug/ml)” each time. Also, the binding result in experiment [7], in [8] and in experiment [9] was “no binding (tested: 10 ug/ml)” in each case.

B2: 59R5 antibody (antibody, human IgG2, kappa, V domains shown)
VH: B1 VH with Q1E, G99S, F102Y, A103T, I104T
VL: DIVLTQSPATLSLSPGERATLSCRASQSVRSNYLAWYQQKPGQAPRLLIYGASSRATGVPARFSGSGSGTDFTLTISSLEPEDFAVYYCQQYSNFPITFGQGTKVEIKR
notes: Human IgG2; also called anti-Notch2/3 antibody 59R5; 59R5 IgG2
In the case of B2, the binding result in experiment [10] is “no binding”. For the same molecule, the Kd in experiment [11] was 0.29 nM; in experiment [12], 0.05 nM; in experiment [13], 0.26 nM; in experiment [14], 0.22 nM.
